Experimental findings from EP4682162A1 (Neowise Biotechnology Co., Ltd., dated 2026) are described below.

Residue numbers refer to the chain shown, from its start.

In this assay the target is T1, labeled peptide-MHC (HLA-A*02:01) tetramer (…-HLA-A*02:01 tetramer) (human).
T1 construct: Labeled tetramer used for flow cytometry staining; also called pMHC; pMHC tetramer
Briefly: tetramer staining of sorted T cell clones, flow cytometry. Background: In flow cytometry, cells or beads pass a laser one at a time.

B1: nwTCR-3125 (TCR, V domains shown)
V domain 1: QKEVEQNSGPLSVPEGAIASLNCTYSDRVSQSFFWYRQYSGKSPELIMSIYSNGDKEDGRFTAQLNKASQYVSLLIRDSQPSDSATYLCALVSGTYKYIFGTGTRLKVLA
V domain 2: DTAVSQTPKYLVTQMGNDKSIKCEQNLGHDTMYWYKQDSKKFLKIMFSYNNKELIINETVPNRFSPKSPDKAHLNLHINSLELGDSAVYFCASSPGLAYEQYFGPGTRLTVTE
notes: TCR on T cells
Take B1: the binding result is “binds”.

B2: nwTCR-2228 (TCR, V domains shown)
V domain 1: QKEVEQNSGPLSVPEGAIASLNCTYSDRGSQSFFWYRQYSGKSPELIMFIYSNGDKEDGRFTAQLNKASQYVSLLIRDSQPSDSATYLCAGHTGNQFYFGTGTSLTVIP
V domain 2: EPEVTQTPSHQVTQMGQEVILRCVPISNHLYFYWYRQILGQKVEFLVSFYNNEISEKSEIFDDQFSVERPDGSNFTLKIRSTKLEDSAMYFCASREDGYEQYFGPGTRLTVTE
notes: TCR on T cells
In the case of B2, the binding result was “binds”.

B3: nwTCR-2383 (TCR, V domains shown)
V domain 1: GIQVEQSPPDLILQEGANSTLRCNFSDSVNNLQWFHQNPWGQLINLFYIPSGTKQNGRLSATTVATERYSLLYISSSQTTDSGVYFCAVMPSGTYKYIFGTGTRLKVLA
V domain 2: EAQVTQNPRYLITVTGKKLTVTCSQNMNHEYMSWYRQDPGLGLRQIYYSMNVEVTDKGDVPEGYKVSRKEKRNFPLILESPSPNQTSLYFCASSPSSGYNEQFFGPGTRLTVLE
notes: TCR on T cells
As for B3, the binding result is “binds”.

B4: nwTCR-2720 (TCR, V domains shown)
V domain 1: SQQGEEDPQALSIQEGENATMNCSYKTSINNLQWYRQNSGRGLVHLILIRSNEREKHSGRLRVTLDTSKKSSSLLITASRAADTASYFCATDLSGAGSYQLTFGKGTKLSVIP
V domain 2: B3 V domain 2 with P95L, S96G, S97T, Y99F, N100G, Q102L, P106E, T108S
notes: TCR on T cells
For the molecule B4, the binding result is “binds”.

B5: nwTCR-2970 (TCR, V domains shown)
V domain 1: QQPVQSPQAVILREGEDAVINCSSSKALYSVHWYRQKHGEAPVFLMILLKGGEQKGHDKISASFNEKKQQSSLYLTASQLSYSGTYFCGTEFRNDYKLSFGAGTTVTVRA
V domain 2: B3 V domain 2 with S96G, S97T, Y99G, N100Y, E101G, Q102Y, F103T, P106S, L113V
notes: TCR on T cells
On to B5, for which the binding result was “binds”.

B6: nwTCR-2286 (TCR, V domains shown)
V domain 1: GQQLNQSPQSMFIQEGEDVSMNCTSSSIFNTWLWYKQDPGEGPVLLIALYKAGELTSNGRLTAQFGITRKDSFLNISASIPSDVGIYFCAGPEDDKIIFGKGTRLHILP
V domain 2: DSGVTQTPKHLITATGQRVTLRCSPRSGDLSVYWYQQSLDQGLQFLIQYYNGEERAKGNILERFSAQQFPDLHSELNLSSLELGDSALYFCASSPWLQGGNEQFFGPGTRLTVLE
notes: TCR on T cells
For B6, the binding result is “binds”.

B7: nwTCR-2718 (TCR, V domains shown)
V domain 1: GQQLNQSPQSMFIQEGEDVSMNCTSSSIFNTWLWYKQDPGEGPVLLIALYKAGELTSNGRLTAQFGITRKDSFLNISASIPSDVGIYFCAGFSQGGSEKLVFGKGTKLTVNP
V domain 2: B6 V domain 2 with L97T, Q98A, E102T, Q103I, F104Y, P107E, T109S, R110W, L114V
notes: TCR on T cells
Consider B7, for which the binding result was “binds”.

B8: nwTCR-2418 (TCR, V domains shown)
V domain 1: DQQVKQNSPSLSVQEGRISILNCDYTNSMFDYFLWYKKYPAEGPTFLISISSIKDKNEDGRFTVFLNKSAKHLSLHIVPSQPGDSAVYFCAASGVRGQNFVFGPGTRLSVLP
V domain 2: B6 V domain 2 with Q98A, N101R, F104Y, L114T
notes: TCR on T cells
B8: the binding result is “binds”.

B9: nwTCR-3028 (TCR, V domains shown)
V domain 1: SQQGEEDPQALSIQEGENATMNCSYKTSINNLQWYRQNSGRGLVHLILIRSNEREKHSGRLRVTLDTSKKSSSLLITASRAADTASYFCATDVKSSYKLIFGSGTRLLVRP
V domain 2: AAGVIQSPRHLIKEKRETATLKCYPIPRHDTVYWYQQGPGQDPQFLISFYEKMQSDKGSIPDRFSAQQFSDYHSELNMSSLELGDSALYFCASSLGLLGNEQFFGPGTRLTVLE
notes: TCR on T cells
B9: the binding result is on record as “binds”.

B10: nwTCR-3095 (TCR, V domains shown)
V domain 1: DQQVKQNSPSLSVQEGRISILNCDYTNSMFDYFLWYKKYPAEGPTFLISISSIKDKNEDGRFTVFLNKSAKHLSLHIVPSQPGDSAVYFCAAFASDSNYQLIWGAGTKLIIKP
V domain 2: DTAVSQTPKYLVTQMGNDKSIKCEQNLGHDTMYWYKQDSKKFLKIMFSYNNKELIINETVPNRFSPKSPDKAHLNLHINSLELGDSAVYFCASSPWTSGGNGELFFGEGSRLTVLE
notes: TCR on T cells
Take B10: the binding result is given as “binds”.

B11: nwTCR-2170 (TCR, V domains shown)
V domain 1: GQQLNQSPQSMFIQEGEDVSMNCTSSSIFNTWLWYKQDPGEGPVLLIALYKAGELTSNGRLTAQFGITRKDSFLNISASIPSDVGIYFCAGQASGTYKYIFGTGTRLKVLA
V domain 2: EAQVTQNPRYLITVTGKKLTVTCSQNMNHEYMSWYRQDPGLGLRQIYYSMNVEVTDKGDVPEGYKVSRKEKRNFPLILESPSPNQTSLYFCASSSGTSDEQYFGPGTRLTVTE
notes: TCR on T cells
With B11, the binding result is listed as “binds”.

B12: nwTCR-2915 (TCR, V domains shown)
V domain 1: GESVGLHLPTLSVQEGDNSIINCAYSNSASDYFIWYKQESGKGPQFIIDIRSNMDKRQGQRVTVLLNKTVKHLSLQIAATQPGDSAVYFCAESYGQKLLFARGTMLKVDL
V domain 2: B11 V domain 2 with S95F, G96W, T97S, S98A, D99G, Q101L, Y102F, P105E, T107S, T112L
notes: TCR on T cells
With B12, the binding result is on record as “binds”.

B13: nwTCR-2793 (TCR, V domains shown)
V domain 1: QKEVEQNSGPLSVPEGAIASLNCTYSDRVSQSFFWYRQYSGKSPELIMSIYSNGDKEDGRFTAQLNKASQYVSLLIRDSQPSDSATYLCAVVSSNDYKLSFGAGTTVTVRA
V domain 2: B11 V domain 2 with S95P, S98I, D99G, Q101L, Y102F, P105E, T107S, T112L
notes: TCR on T cells
As for B13, the binding result is recorded as “binds”.

B14: nwTCR-2719 (TCR, V domains shown)
V domain 1: B3 V domain 1 with M90L, P91A, S92P
V domain 2: B11 V domain 2 with S95W, T97S, S98G, D99Y
notes: TCR on T cells
Regarding B14, the binding result is “binds”.

B15: nwTCR-2285 (TCR, V domains shown)
V domain 1: KNEVEQSPQNLTAQEGEFITINCSYSVGISALHWLQQHPGGGIVSLFMLSSGKKKHGRLIATINIQEKHSSLHITASHPRDSAVYICALNSDSNYQLIWGAGTKLIIKP
V domain 2: B11 V domain 2 with S93T, S95P, S98L, D99Y
notes: TCR on T cells
Regarding B15, the binding result is given as “binds”.

B16: nwTCR-2316 (TCR, V domains shown)
V domain 1: TQLLEQSPQFLSIQEGENLTVYCNSSSVFSSLQWYRQEPGEGPVLLVTVVTGGEVKKLKRLTFQFGDARKDSSLHITAAQPGDTGLYLCAGVDNYGQNFVFGPGTRLSVLP
V domain 2: DAGVIQSPRHEVTEMGQEVTLRCKPISGHNSLFWYRQTMMRGLELLIYFNNNVPIDDSGMPEDRFSAKMPNASFSTLKIQPSEPRDSAVYFCASSIAALGFGELFFGEGSRLTVLE
notes: TCR on T cells
Consider B16, for which the binding result is reported as “binds”.

B17: nwTCR-2916 (TCR, V domains shown)
V domain 1: GQQLNQSPQSMFIQEGEDVSMNCTSSSIFNTWLWYKQDPGEGPVLLIALYKAGELTSNGRLTAQFGITRKDSFLNISASIPSDVGIYFCAGQDDGGSQGNLIFGKGTKLSVKP
V domain 2: DSGVTQTPKHLITATGQRVTLRCSPRSGDLSVYWYQQSLDQGLQFLIQYYNGEERAKGNILERFSAQQFPDLHSELNLSSLELGDSALYFCASSPWTSGGDGELFFGEGSRLTVLE
notes: TCR on T cells
With B17, the binding result was “binds”.

B18: nwTCR-2523 (TCR, V domains shown)
V domain 1: RKEVEQDPGPFNVPEGATVAFNCTYSNSASQSFFWYRQDCRKEPKLLMSVYSSGNEDGRFTAQLNRASQYISLLIRDSKLSDSATYLCVVNRGSQGNLIFGKGTKLSVKP
V domain 2: DAGVTQSPTHLIKTRGQQVTLRCSPKSGHDTVSWYQQALGQGPQFIFQYYEEEERQRGNFPDRFSGHQFPNYSSELNVNALLLGDSALYLCASSLVDYEQYFGPGTRLTVTE
notes: TCR on T cells
Regarding B18, the binding result is reported as “binds”.

B19: nwTCR-2555 (TCR, V domains shown)
V domain 1: AQSVSQHNHHVILSEAASLELGCNYSYGGTVNLFWYVQYPGQHLQLLLKYFSGDPLVKGIKGFEAEFIKSKFSFNLRKPSVQWSDTAEYFCAVKMDSSYKLIFGSGTRLLVRP
V domain 2: DGGITQSPKYLFRKEGQNVTLSCEQNLNHDAMYWYRQDPGQGLRLIYYSQIVNDFQKGDIAEGYSVSREKKESFPLTVTSAQKNPTAFYLCASLGLNYNEQFFGPGTRLTVLE
notes: TCR on T cells
As for B19, the binding result was “binds”.

B20: nwTCR-1906 (TCR, V domains shown)
V domain 1: RKEVEQDPGPFNVPEGATVAFNCTYSNSASQSFFWYRQDCRKEPKLLMSVYSSGNEDGRFTAQLNRASQYISLLIRDSKLSDSATYLCVVTQAGTALIFGKGTTLSVSS
V domain 2: not shown
notes: TCR on T cells
B20: the binding result is “binds”.

B21: nwTCR-1953 (TCR, V domains shown)
V domain 1: DAKTTQPNSMESNEEEPVHLPCNHSTISGTDYIHWYRQLPSQGPEYVIHGLTSNVNNRMASLAIAEDRKSSTLILHRATLRDAAVYYCILRAGGSGDKLTFGTGTRLAVRP
V domain 2: DTEVTQTPKHLVMGMTNKKSLKCEQHMGHRAMYWYKQKAKKPPELMFVYSYEKLSINESVPSRFSPECPNSSLLNLHLHALQPEDSALYLCASSQDPFWGAGELFFGEGSRLTVLE
notes: TCR on T cells
Turning to B21, the binding result is recorded as “binds”.

B22: nwTCR-2583 (TCR, V domains shown)
V domain 1: GQSLEQPSEVTAVEGAIVQINCTYQTSGFYGLSWYQQHDGGAPTFLSYNALDGLEETGRFSSFLSRSDSYGYLLLQELQMKDSASYFCALGTEDKIIFGKGTRLHILP
V domain 2: EAQVTQNPRYLITVTGKKLTVTCSQNMNHEYMSWYRQDPGLGLRQIYYSMNVEVTDKGDVPEGYKVSRKEKRNFPLILESPSPNQTSLYFCASRISLGANYGYTFGSGTRLTVVE
notes: TCR on T cells
On to B22, for which the binding result is “binds”.
